Data published in US20240425837A1 (Novo Nordisk, published 2024).

Target: human plasma-derived coagulation Factor X (FX) (human) (UniProt P00742)
Assay: cell-based or functional assay

Sequence of human plasma-derived coagulation Factor X (FX) (human) (P00742 41-179, chain 1 of 2): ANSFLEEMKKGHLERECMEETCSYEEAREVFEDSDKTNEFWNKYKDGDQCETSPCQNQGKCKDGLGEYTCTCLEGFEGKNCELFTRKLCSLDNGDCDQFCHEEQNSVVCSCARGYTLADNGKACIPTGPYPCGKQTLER
Sequence of human plasma-derived coagulation Factor X (FX) (human) (P00742 183-488, chain 2 of 2): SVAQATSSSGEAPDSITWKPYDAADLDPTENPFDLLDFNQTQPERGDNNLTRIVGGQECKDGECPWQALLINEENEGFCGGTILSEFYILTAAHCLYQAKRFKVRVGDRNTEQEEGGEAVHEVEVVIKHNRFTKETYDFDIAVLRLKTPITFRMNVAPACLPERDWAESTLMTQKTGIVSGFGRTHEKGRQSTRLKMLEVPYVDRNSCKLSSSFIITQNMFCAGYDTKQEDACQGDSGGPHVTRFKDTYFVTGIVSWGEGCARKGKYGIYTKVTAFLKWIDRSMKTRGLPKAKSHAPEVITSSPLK

KM of FX activation by 0.1 nM FIXa with phospholipid vesicles, antibody at 300 nM: 0.0535 µM
Substance: Emicizumab sequence identical analogue (SIA) (bispecific antibody)
